The values that follow come from article PMC6962361.

The series has as its target Fpr C151Stop (Fowlpox virus) (UniProt A0A385H9X4). Nature of the series: fluorescence polarization. The conditions noted are these: FP: 25 mM Tris-HCl pH 7.4, 100 mM NaCl, 5 mM EDTA, 1% glycerol, 10 nM DNA, 37 C 20 min, protein as dimer; NMR: 25 mM L-Arg, 25 mM L-Glu, 303 K. In general terms: Fluorescence polarisation rises when a labelled molecule tumbles more slowly, as on binding a larger partner.

Consider “CGGAGGCCTAGCGTCCGGAATTCTCGTTTCGAGAATTCCGGATTAGGGATCCGCG / CGCGGATCCCTAAGCTCCATCGATCGTTTCGATCGATGGAGCCGCTAGGCCTCCG [F13/13HJ (FHJ13/13)]”, for which the Kd worked out at 168 nM.

Broadly, the Kd is the concentration at which binding is half-saturated. High values mean a looser complex, low ones a tighter complex.
